{"source": "paper PMC10540216", "about": "“Activity Guided Azide-methyllysine Photo-trapping for Substrate Profiling of Lysine Demethylases” (Journal of the American Chemical Society, 2023)", "molecules": {"B1": {"name": "THIO_HUMAN (protein, UniProt P10599 2-105, looked up)", "Thioredoxin": "VKQIESKTAFQEALDAAGDKLVVVDFSATWCGPCKMIKPFFHSLSEKYSNVIFLEVDVDDCQDVASECEVKCMPTFQFFKKGQKVGEFSGANKEKLEATINELV"}, "B2": {"name": "KDM4A_HUMAN (protein, UniProt O75164 2-1064, looked up)", "Lysine-specific demethylase 4A": "ASESETLNPSARIMTFYPTMEEFRNFSRYIAYIESQGAHRAGLAKVVPPKEWKPRASYDDIDDLVIPAPIQQLVTGQSGLFTQYNIQKKAMTVREFRKIANSDKYCTPRYSEFEELERKYWKNLTFNPPIYGADVNGTLYEKHVDEWNIGRLRTILDLVEKESGITIEGVNTPYLYFGMWKTSFAWHTEDMDLYSINYLHFGEPKSWYSVPPEHGKRLERLAKGFFPGSAQSCEAFLRHKMTLISPLMLKKYGIPFDKVTQEAGEFMITFPYGYHAGFNHGFNCAESTNFATRRWIEYGKQAVLCSCRKDMVKISMDVFVRKFQPERYKLWKAGKDNTVIDHTLPTPEAAEFLKESELPPRAGNEEECPEEDMEGVEDGEEGDLKTSLAKHRIGTKRHRVCLEIPQEVSQSELFPKEDLSSEQYEMTECPAALAPVRPTHSSVRQVEDGLTFPDYSDSTEVKFEELKNVKLEEEDEEEEQAAAALDLSVNPASVGGRLVFSGSKKKSSSSLGSGSSRDSISSDSETSEPLSCRAQGQTGVLTVHSYAKGDGRVTVGEPCTRKKGSAARSFSERELAEVADEYMFSLEENKKSKGRRQPLSKLPRHHPLVLQECVSDDETSEQLTPEEEAEETEAWAKPLSQLWQNRPPNFEAEKEFNETMAQQAPHCAVCMIFQTYHQVEFGGFNQNCGNASDLAPQKQRTKPLIPEMCFTSTGCSTDINLSTPYLEEDGTSILVSCKKCSVRVHASCYGVPPAKASEDWMCSRCSANALEEDCCLCSLRGGALQRANDDRWVHVSCAVAILEARFVNIAERSPVDVSKIPLPRFKLKCIFCKKRRKRTAGCCVQCSHGRCPTAFHVSCAQAAGVMMQPDDWPFVVFITCFRHKIPNLERAKGALQSITAGQKVISKHKNGRFYQCEVVRLTTETFYEVNFDDGSFSDNLYPEDIVSQDCLQFGPPAEGEVVQVRWTDGQVYGAKFVASHPIQMYQVEFEDGSQLVVKRDDVYTLDEELPKRVKSRLSVASDMRFNEIFTEKEVKQEKKRQRVINSRYREDYIEPALYRAIME"}, "B3": {"name": "DSG1_HUMAN (protein, UniProt Q02413 50-1049, looked up)", "Desmoglein-1": "EWIKFAAACREGEDNSKRNPIAKIHSDCAANQQVTYRISGVGIDQPPYGIFVINQKTGEINITSIVDREVTPFFIIYCRALNSMGQDLERPLELRVRVLDINDNPPVFSMATFAGQIEENSNANTLVMILNATDADEPNNLNSKIAFKIIRQEPSDSPMFIINRNTGEIRTMNNFLDREQYGQYALAVRGSDRDGGADGMSAECECNIKILDVNDNIPYMEQSSYTIEIQENTLNSNLLEIRVIDLDEEFSANWMAVIFFISGNEGNWFEIEMNERTNVGILKVVKPLDYEAMQSLQLSIGVRNKAEFHHSIMSQYKLKASAISVTVLNVIEGPVFRPGSKTYVVTGNMGSNDKVGDFVATDLDTGRPSTTVRYVMGNNPADLLAVDSRTGKLTLKNKVTKEQYNMLGGKYQGTILSIDDNLQRTCTGTININIQSFGNDDRTNTEPNTKITTNTGRQESTSSTNYDTSTTSTDSSQVYSSEPGNGAKDLLSDNVHFGPAGIGLLIMGFLVLGLVPFLMICCDCGGAPRSAAGFEPVPECSDGAIHSWAVEGPQPEPRDITTVIPQIPPDNANIIECIDNSGVYTNEYGGREMQDLGGGERMTGFELTEGVKTSGMPEICQEYSGTLRRNSMRECREGGLNMNFMESYFCQKAYAYADEDEGRPSNDCLLIYDIEGVGSPAGSVGCCSFIGEDLDDSFLDTLGPKFKKLADISLGKESYPDLDPSWPPQSTEPVCLPQETEPVVSGHPPISPHFGTTTVISESTYPSGPGVLHPKPILDPLGYGNVTVTESYTTSDTLKPSVHVHDNRPASNVVVTERVVGPISGADLHGMLEMPDLRDGSNVIVTERVIAPSSSLPTSLTIHHPRESSNVVVTERVIQPTSGMIGSLSMHPELANAHNVIVTERVVSGAGVTGISGTTGISGGIGSSGLVGTSMGAGSGALSGAGISGGGIGLSSLGGTASIGHMRSSSDHHFNQTIGSASPSTARSRITKYSTVQYSK"}, "B4": {"name": "CPSF1_HUMAN (protein, UniProt Q10570 1-1443, looked up)", "Cleavage and polyadenylation …": "MYAVYKQAHPPTGLEFSMYCNFFNNSERNLVVAGTSQLYVYRLNRDAEALTKNDRSTEGKAHREKLELAASFSFFGNVMSMASVQLAGAKRDALLLSFKDAKLSVVEYDPGTHDLKTLSLHYFEEPELRDGFVQNVHTPRVRVDPDGRCAAMLVYGTRLVVLPFRRESLAEEHEGLVGEGQRSSFLPSYIIDVRALDEKLLNIIDLQFLHGYYEPTLLILFEPNQTWPGRVAVRQDTCSIVAISLNITQKVHPVIWSLTSLPFDCTQALAVPKPIGGVVVFAVNSLLYLNQSVPPYGVALNSLTTGTTAFPLRTQEGVRITLDCAQATFISYDKMVISLKGGEIYVLTLITDGMRSVRAFHFDKAAASVLTTSMVTMEPGYLFLGSRLGNSLLLKYTEKLQEPPASAVREAADKEEPPSKKKRVDATAGWSAAGKSVPQDEVDEIEVYGSEAQSGTQLATYSFEVCDSILNIGPCANAAVGEPAFLSEEFQNSPEPDLEIVVCSGHGKNGALSVLQKSIRPQVVTTFELPGCYDMWTVIAPVRKEEEDNPKGEGTEQEPSTTPEADDDGRRHGFLILSREDSTMILQTGQEIMELDTSGFATQGPTVFAGNIGDNRYIVQVSPLGIRLLEGVNQLHFIPVDLGAPIVQCAVADPYVVIMSAEGHVTMFLLKSDSYGGRHHRLALHKPPLHHQSKVITLCLYRDLSGMFTTESRLGGARDELGGRSGPEAEGLGSETSPTVDDEEEMLYGDSGSLFSPSKEEARRSSQPPADRDPAPFRAEPTHWCLLVRENGTMEIYQLPDWRLVFLVKNFPVGQRVLVDSSFGQPTTQGEARREEATRQGELPLVKEVLLVALGSRQSRPYLLVHVDQELLIYEAFPHDSQLGQGNLKVRFKKVPHNINFREKKPKPSKKKAEGGGAEEGAGARGRVARFRYFEDIYGYSGVFICGPSPHWLLVTGRGALRLHPMAIDGPVDSFAPFHNVNCPRGFLYFNRQGELRISVLPAYLSYDAPWPVRKIPLRCTAHYVAYHVESKVYAVATSTNTPCARIPRMTGEEKEFETIERDERYIHPQQEAFSIQLISPVSWEAIPNARIELQEWEHVTCMKTVSLRSEETVSGLKGYVAAGTCLMQGEEVTCRGRILIMDVIEVVPEPGQPLTKNKFKVLYEKEQKGPVTALCHCNGHLVSAIGQKIFLWSLRASELTGMAFIDTQLYIHQMISVKNFILAADVMKSISLLRYQEESKTLSLVSRDAKPLEVYSVDFMVDNAQLGFLVSDRDRNLMVYMYLPEAKESFGGMRLLRRADFHVGAHVNTFWRTPCRGATEGLSKKSVVWENKHITWFATLDGGIGLLLPMQEKTYRRLLMLQNALTTMLPHHAGLNPRAFRMLHVDRRTLQNAVRNVLDGELLNRYLYLSTMERSELAKKIGTTPDIILDDLLETDRVTAHF"}, "B5": {"name": "MPCP_HUMAN (protein, UniProt Q00325 50-362, looked up)", "Solute carrier family 25 …": "AVEEQYSCDYGSGRFFILCGLGGIISCGTTHTALVPLDLVKCRMQVDPQKYKGIFNGFSVTLKEDGVRGLAKGWAPTFLGYSMQGLCKFGFYEVFKVLYSNMLGEENTYLWRTSLYLAASASAEFFADIALAPMEAAKVRIQTQPGYANTLRDAAPKMYKEEGLKAFYKGVAPLWMRQIPYTMMKFACFERTVEALYKFVVPKPRSECSKPEQLVVTFVAGYIAGVFCAIVSHPADSVVSVLNKEKGSSASLVLKRLGFKGVWKGLFARIIMIGTLTALQWFIYDSVKVYFRLPRPPPPEMPESLKKKLGLTQ"}, "B6": {"name": "ADT2_HUMAN (protein, UniProt P05141 1-298, looked up)", "ADP/ATP translocase 2": "MTDAAVSFAKDFLAGGVAAAISKTAVAPIERVKLLLQVQHASKQITADKQYKGIIDCVVRIPKEQGVLSFWRGNLANVIRYFPTQALNFAFKDKYKQIFLGGVDKRTQFWLYFAGNLASGGAAGATSLCFVYPLDFARTRLAADVGKAGAEREFRGLGDCLVKIYKSDGIKGLYQGFNVSVQGIIIYRAAYFGIYDTAKGMLPDPKNTHIVISWMIAQTVTAVAGLTSYPFDTVRRRMMMQSGRKGTDIMYTGTLDCWRKIARDEGGKAFFKGAWSNVLRGMGGAFVLVLYDEIKKYT"}, "B7": {"name": "KDM4C_HUMAN (protein, UniProt Q9H3R0 1-1056, looked up)", "Lysine-specific demethylase 4C": "MEVAEVESPLNPSCKIMTFRPSMEEFREFNKYLAYMESKGAHRAGLAKVIPPKEWKPRQCYDDIDNLLIPAPIQQMVTGQSGLFTQYNIQKKAMTVKEFRQLANSGKYCTPRYLDYEDLERKYWKNLTFVAPIYGADINGSIYDEGVDEWNIARLNTVLDVVEEECGISIEGVNTPYLYFGMWKTTFAWHTEDMDLYSINYLHFGEPKSWYAIPPEHGKRLERLAQGFFPSSSQGCDAFLRHKMTLISPSVLKKYGIPFDKITQEAGEFMITFPYGYHAGFNHGFNCAESTNFATVRWIDYGKVAKLCTCRKDMVKISMDIFVRKFQPDRYQLWKQGKDIYTIDHTKPTPASTPEVKAWLQRRRKVRKASRSFQCARSTSKRPKADEEEEVSDEVDGAEVPNPDSVTDDLKVSEKSEAAVKLRNTEASSEEESSASRMQVEQNLSDHIKLSGNSCLSTSVTEDIKTEDDKAYAYRSVPSISSEADDSIPLSSGYEKPEKSDPSELSWPKSPESCSSVAESNGVLTEGEESDVESHGNGLEPGEIPAVPSGERNSFKVPSIAEGENKTSKSWRHPLSRPPARSPMTLVKQQAPSDEELPEVLSIEEEVEETESWAKPLIHLWQTKSPNFAAEQEYNATVARMKPHCAICTLLMPYHKPDSSNEENDARWETKLDEVVTSEGKTKPLIPEMCFIYSEENIEYSPPNAFLEEDGTSLLISCAKCCVRVHASCYGIPSHEICDGWLCARCKRNAWTAECCLCNLRGGALKQTKNNKWAHVMCAVAVPEVRFTNVPERTQIDVGRIPLQRLKLKCIFCRHRVKRVSGACIQCSYGRCPASFHVTCAHAAGVLMEPDDWPYVVNITCFRHKVNPNVKSKACEKVISVGQTVITKHRNTRYYSCRVMAVTSQTFYEVMFDDGSFSRDTFPEDIVSRDCLKLGPPAEGEVVQVKWPDGKLYGAKYFGSNIAHMYQVEFEDGSQIAMKREDIYTLDEELPKRVKARFSTASDMRFEDTFYGADIIQGERKRQRVLSSRFKNEYVADPVYRTFLKSSFQKKCQKRQ"}}, "tested_on": "KDM4A-I71AzF", "assay": "CASI: photo-crosslinking with HEK293T cell extracts, StrepTactin enrichment and LC-MS/MS proteomics;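 note: lysates from HEK293T cells pretreated with a KDM4 inhibitor to raise proteome methylation, affinity-purified after ±UV, gel-resolved, trypsin-digested, with exclusive unique peptides per protein averaged per condition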", "assay_type": "binding, human", "settings": "sheet \"Final results but with 0.01\""}
{"molecule": "B1", "values": [{"measurement": "Fold change (+UV/-UV)", "value": 0.5}]}
{"molecule": "B2", "values": [{"measurement": "Fold change (+UV/-UV)", "value": 1.184}]}
{"molecule": "B3", "values": [{"measurement": "Fold change (+UV/-UV)", "value": 2}]}
{"molecule": "B4", "values": [{"measurement": "Fold change (+UV/-UV)", "value": 0.6923}]}
{"molecule": "B5", "values": [{"measurement": "Fold change (+UV/-UV)", "value": 1}]}
{"molecule": "B6", "values": [{"measurement": "Fold change (+UV/-UV)", "value": 0.8333}]}
{"molecule": "B7", "values": [{"measurement": "Fold change (+UV/-UV)", "value": 1.333}]}
